# Data: patent publication US9744212B2, “Galectin-3C combination therapy for human cancer” (Texas Tech University System, priority 2011, dated 2017)
# B1: Gal-3C: N-terminally truncated human galectin-3 consisting of 143 carboxy-terminal amino acid residues, SEQ ID NO: 1 (protein)
# chain: GAPAGPLIVPYNLPLPGGVVPRMLITILGTVKPNANRIALDFQRGNDVAFHFNPRFNENNRRVIVCNTKLDNNWGREERQSVFPFESGKPFKIQVLVEPDHFKVAVNDAHLLQYNHRVKKLNEISKLGISGDIDITSASYTMI
# Legend:
# [1] = tested on: AKT/IKK pathway; assay: Western blot of proteins in the NF-κB AKT/IKK pathway; assay type: cell-based; conditions: U266 and primary human MM cells; Gal-3C 10 μg/ml
# From the text: EXAMPLE 4 indicates Gal-3C impairs NF-kB activation induced by Bonin U266 cells. Recently, it has been shown that the mechanism of action of Boris more complex than originally thought and can be differ depending on the cell type. […] This effect potentially reduces the therapeutic effect of Bonin MM, because NF-kB activation in plasma cells is associated with anti-apoptotic pathways (91). […] Comparison of NFkB expression by Western blot. […] Equal amounts of lysates of human primary MM and U266 cells and media were fractionated by SDS-PAGE and transferred to nitrocellulose membranes. Primary antibodies were visualized with HRP-coupled goat anti-rabbit or anti-mouse IgGs using an ATK/IKK kit (Cell Signaling Technology, Danvers, Mass.).
# Upon IKK-mediated phosphorylation, IKBα dissociates from the NF-kB complex (p50 and p65 proteins). Free NF-kB is then phosphorylated on serine 529 of the p65 subunit and enters the nucleus where it regulates gene transcription.
# [2] = tested on: HUVEC; assay: HUVEC tubule formation assay on Matrigel with U266 conditioned media; assay type: cell-based, human; conditions: 20% V/V conditioned medium of U266 treated 48 h with 10 μg/mL Gal-3C, 5 nM Bor or both; 16-hour incubation
# Experimental: HUVEC Tubule Formation Assay. A tubule formation assay was performed in vitro as described (86) to measure angiogenesis. Briefly, growth factor-reduced Matrigel (Becton Dickinson) was allowed to polymerize in the presence of 30 ng/mL recombinant basic fibroblastic growth factor (bFGF; R&D Systems) for 1 hour at 37° C.
# FIG. 5 is an image of the results from the In vitro tubule formation assay having 6 regions. Serum-starved HUVEC were allowed to form tubules on a […]™ surface in the presence of VEGF (positive control), EMB-2 medium alone (negative control), or EBM-2 supplemented with 20% V/V U266 conditioned media (c.m.). […] To evaluate the effect of different treatments on the ability of U266 cells to induce angiogenesis, a […]™-based tubule formation assay was performed in the presence of U266 conditioned media as described for the chemotaxis assay. Serum-starved (5×103) HUVEC were seeded on the […]™ surface in 200-μL EBM-2 medium supplemented with 20% V/V conditioned medium. Pictures were taken after 16-hour incubation in 5% CO2 at 37° C. The assay was run in triplicate and representative images are depicted in FIG. 5. As a positive control, EBM-2 medium supplemented with 20 ng/mL VEGF was used.
# [3] = tested on: HUVEC; assay: HUVEC chemotaxis (migration) toward U266 conditioned media; assay type: cell-based, human; conditions: U266 treated 48 h with 10 μg/mL Gal-3C, 5 nM Bor or both; 20% conditioned medium; ANOVA, Tukey's post-test
# Experimental: Chemotaxis of HUVEC Cells. Chemotaxis (migration) was analyzed with HUVEC cells as a measure of angiogenic potential as reported (86), using 50×10^3 cells/well and 24-well transwell inserts with 8-μm pores. […] As a negative control, EGM-2 medium alone was used. After incubation for 16 h, cells were removed from the upper chamber, and the migrated cells were visualized on the lower side of the filter after fixing and staining with 30% methanol, 10% acetic and 0.1% Coomassie Brilliant Blue. Next, the filters were extensively washed with water, and then air-dried and photographed using an inverted X71 microscope (Olympus, Center Valley, Pa., USA). The average number of cells in 4 random fields per filter was calculated. The studies were run in triplicate and the results are expressed as a migration index (MI), as follows: MI=number of cells migrated in the presence of conditioned medium/number of cells migrated in the presence of EGM-2 alone. […] All assays were run in triplicate.
# FIG. 3A is a graph of the results from the vascular endothelial cell migration assay. FIG. 3B is an image of the filters. […] Mean migration indexes (left; ±95% C.I.) expressed as the number of cells migrated in the presence of the indicated stimulus divided by the number of cells migrated in the presence of EBM-2 alone. […]
# [4] = tested on: U266 MM cells; assay: Chemotaxis of U266 cells toward SDF-1α in transwell chambers; assay type: cell-based, human; conditions: Gal-3C at 2.0 μg/ml; SDF-1α 100 ng/ml; 4 hours
# Experimental: Chemotaxis of U266 Cells. U266 cells (400×10^3/well) were plated in 100-μl cell culture media with and without Gal-3C (0, 0.4, 2.0, 10, and 20 μg/ml) in the top chambers of 24-well transwell inserts with 8-μm pores. Cell culture media (600 μ ? ) containing the B-cell chemoattractant stromal cell-derived factor (SDF)-1 ? (100 ng/ml; R&D Systems, Minneapolis, Minn., USA) was added to the bottom chamber. After 4 hours, the number of U266 cells in the bottom chamber was counted with a FACScan flow cytometer (flux rate on high, a 2 min acquisition gate, and 200 μs resolution).
# FIG. 2 is a graph of Gal-3C inhibits the chemotaxis of U266 MM cells Gal-3C (0.4, 2, 10, or 20 μg/ml) in bicameral chambers in response to stromal cell-derived factor (SDF)-1α (100 ng/ml). Error bars are ±S.D. and sextuplicate data points are represented (ANOVA with Turkey test P<0.001 for all comparisons to controls). […] Gal-3C at 2.0 μg/m1 inhibited more than 60% of the U266 cell chemotaxis stimulated by the chemokine, SDF-1α. The SDF-1α and its receptor, CXCR4, are regulators of the migration and homing of MM cells to the bone marrow, and possibly may also control egression of MM cells out of the bone marrow (76).
# [5] = tested on: human breast cancer; conditions: mouse model of human breast cancer, reference (60); cited from earlier work
molecule,measurement,setting,value
B1,"P-p65, P-Akt, P-IKKβ and P-IKKα (activation of the AKT/IKK pathway)",[1],inhibited
same,potential of U266 cells for induction of angiogenesis (tubule formation),[2],almost completely impaired
same,migration index compared with controls,[3],no significant difference
same,inhibition of U266 cell chemotaxis stimulated by SDF-1α,[4],more than 60%
same,adverse side effects,[5],no evidence of adverse side effects
same,tumor growth and metastasis,[5],inhibited tumor growth and metastasis
